B1: Adagio protein 3 (Arabidopsis thaliana (Mouse-ear cress)), Q9C9W9 (parent)
chain: MAREHAIGEATGKRKKRGRVEEAEEYCNDGIEEQVEDEKLPLEVGMFYYPMTPPSFIVSDALEPDFPLIYVNRVFEVFTGYRADEVLGRNCRFLQYRDPRAQRRHPLVDPVVVSEIRRCLEEGIEFQGELLNFRKDGTPLVNRLRLAPIRDDDGTITHVIGIQVFSETTIDLDRVSYPVFKHKQQLDQTSECLFPSGSPRFKEHHEDFCGILQLSDEVLAHNILSRLTPRDVASIGSACRRLRQLTKNESVRKMVCQNAWGKEITGTLEIMTKKLRWGRLARELTTLEAVCWRKFTVGGIVQPSRCNFSACAVGNRLVLFGGEGVNMQPLDDTFVLNLDAECPEWQRVRVTSSPPGRWGHTLSCLNGSWLVVFGGCGRQGLLNDVFVLDLDAKHPTWKEVAGGTPPLPRSWHSSCTIEGSKLVVSGGCTDAGVLLSDTFLLDLTTDKPTWKEIPTSWAPPSRLGHSLSVFGRTKILMFGGLANSGHLKLRSGEAYTIDLEDEEPRWRELECSAFPGVVVPPPRLDHVAVSMPCGRVIIFGGSIAGLHSPSQLFLIDPAEEKPSWRILNVPGKPPKLAWGHSTCVVGGTRVLVLGGHTGEEWILNELHELCLASRQDSDL
partner: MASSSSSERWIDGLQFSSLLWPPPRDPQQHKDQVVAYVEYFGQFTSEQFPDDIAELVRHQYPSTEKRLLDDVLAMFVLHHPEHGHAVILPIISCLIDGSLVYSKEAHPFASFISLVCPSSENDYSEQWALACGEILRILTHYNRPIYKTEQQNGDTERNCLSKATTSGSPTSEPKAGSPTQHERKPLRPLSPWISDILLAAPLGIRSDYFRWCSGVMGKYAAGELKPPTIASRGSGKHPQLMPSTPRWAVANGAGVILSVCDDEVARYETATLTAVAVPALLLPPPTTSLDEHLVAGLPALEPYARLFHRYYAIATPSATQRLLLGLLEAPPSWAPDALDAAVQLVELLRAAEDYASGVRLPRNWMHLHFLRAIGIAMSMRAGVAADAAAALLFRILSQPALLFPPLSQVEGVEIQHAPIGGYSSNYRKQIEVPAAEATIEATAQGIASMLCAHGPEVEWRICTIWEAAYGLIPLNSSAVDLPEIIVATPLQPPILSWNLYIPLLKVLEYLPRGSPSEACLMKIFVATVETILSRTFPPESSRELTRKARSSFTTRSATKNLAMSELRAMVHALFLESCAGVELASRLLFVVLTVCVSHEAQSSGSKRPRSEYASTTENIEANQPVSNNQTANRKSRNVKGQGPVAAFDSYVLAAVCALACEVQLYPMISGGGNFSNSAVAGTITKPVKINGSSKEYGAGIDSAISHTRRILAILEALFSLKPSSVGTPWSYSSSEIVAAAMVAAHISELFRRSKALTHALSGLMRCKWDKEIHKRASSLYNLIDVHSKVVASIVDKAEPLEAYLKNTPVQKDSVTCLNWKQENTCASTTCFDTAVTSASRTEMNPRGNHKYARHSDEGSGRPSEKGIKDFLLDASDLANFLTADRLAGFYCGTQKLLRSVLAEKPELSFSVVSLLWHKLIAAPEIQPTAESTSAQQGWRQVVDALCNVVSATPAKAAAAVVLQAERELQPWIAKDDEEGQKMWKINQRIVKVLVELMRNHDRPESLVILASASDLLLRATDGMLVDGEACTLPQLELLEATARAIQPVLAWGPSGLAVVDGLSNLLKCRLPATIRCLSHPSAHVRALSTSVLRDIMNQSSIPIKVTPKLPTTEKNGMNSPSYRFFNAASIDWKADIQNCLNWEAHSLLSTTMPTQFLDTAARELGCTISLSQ

Variants of: B1
Details: with gigan_arath GI

effect of a mutation on the interaction | Variant
disrupting interaction | Q163L
decreasing interaction | C91A
decreasing interaction | R92D

From IntAct's records for PubMed 17872410
